The record followed here is patent US20110014656A1 (ZymoGenetics, published 2011).

Residue numbers refer to the chain shown, from its start.

One may read the IC50 as the midpoint of a concentration-inhibition curve. A lower IC50 goes with inhibition by little substance.

In assay [1] the target is T1, human IL-17RC, x1 splice variant, on transfected cells (human, UniProt Q8NAC3 21-791).
T1 construct: Expressed on BHK, 293F or NIH3T3 cells; also called hIL-17RC; hIL-17RC (x1)
T1 sequence: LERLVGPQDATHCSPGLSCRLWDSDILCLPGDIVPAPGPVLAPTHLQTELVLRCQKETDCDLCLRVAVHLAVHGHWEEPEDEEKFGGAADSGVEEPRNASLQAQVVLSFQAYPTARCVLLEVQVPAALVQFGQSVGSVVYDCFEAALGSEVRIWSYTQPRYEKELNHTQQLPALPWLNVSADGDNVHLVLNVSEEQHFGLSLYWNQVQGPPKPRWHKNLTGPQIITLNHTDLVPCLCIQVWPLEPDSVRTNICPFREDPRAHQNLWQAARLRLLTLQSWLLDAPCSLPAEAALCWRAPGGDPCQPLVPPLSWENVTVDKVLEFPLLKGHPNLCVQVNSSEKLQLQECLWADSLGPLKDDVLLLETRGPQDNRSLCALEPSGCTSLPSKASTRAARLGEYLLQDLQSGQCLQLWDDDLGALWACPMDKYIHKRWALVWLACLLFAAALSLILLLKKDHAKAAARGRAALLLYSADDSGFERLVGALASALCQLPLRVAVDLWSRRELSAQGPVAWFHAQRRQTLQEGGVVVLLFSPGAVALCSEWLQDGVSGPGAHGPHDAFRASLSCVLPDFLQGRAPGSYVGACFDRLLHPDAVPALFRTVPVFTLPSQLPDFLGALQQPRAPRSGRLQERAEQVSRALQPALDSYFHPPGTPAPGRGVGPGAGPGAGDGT
Kind of assay: competition, cold competitor vs 125I-IL-17A on BHK hIL-17RC cells. The protocol:
Cold competitors were added in 100 fold molar excess. […] Wells were incubated on ice for 1-hour followed by two washes with PBS (Invitrogen 20012-027) and one wash with a high salt solution (1.5M NaCL, 50 mM HEPES pH 7.4). Wells were extracted with 500 ul of 0.8M NaOH for 30 min. at room temperature and counts per minute were measured in a gamma counter (Packard Cobra II A5005).

Assay [2] has as its target T2, human IL-17 receptor (IL-17RA) on transfected cells (human, UniProt Q96F46 33-320).
T2 construct: it may not be the full-length receptor; also called hIL-17RA
T2 sequence: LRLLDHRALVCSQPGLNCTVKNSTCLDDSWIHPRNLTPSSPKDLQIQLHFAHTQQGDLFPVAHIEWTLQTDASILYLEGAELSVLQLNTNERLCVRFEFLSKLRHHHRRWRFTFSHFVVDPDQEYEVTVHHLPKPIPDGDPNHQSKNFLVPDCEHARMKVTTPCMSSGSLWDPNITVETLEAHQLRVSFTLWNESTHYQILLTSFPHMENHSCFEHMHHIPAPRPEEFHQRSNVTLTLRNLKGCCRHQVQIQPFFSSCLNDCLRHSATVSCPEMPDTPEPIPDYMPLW
Briefly: FACS, biotinylated cytokine on stably transfected BHK cells.

Assay [3] addresses T1, human IL-17RC, x1 splice variant, on …. Kind of assay: FACS, biotinylated cytokine on transiently transfected 293F cells. From the text:
(§1) However, the other splice variants tested either included or excluded hIL-17RC exon 12. These variants were designated hIL-17RCx1 (identical in exon composition to mouse x1 above), hIL-17RCx4 (identical in exon composition to mouse x4 above), hIL-17RCx2, and hIL-17RCx7.
In general terms: A flow cytometer gives signals particle by particle.

In assay [4] the target is T3, human IL-17RC, x4 splice variant, on transfected cells (human, UniProt Q8NAC3 21-791).
T3 construct: Expressed on 293F, BHK or NIH3T3 cells; also called hIL-17RCx4; hIL-17RCX4
T3 sequence: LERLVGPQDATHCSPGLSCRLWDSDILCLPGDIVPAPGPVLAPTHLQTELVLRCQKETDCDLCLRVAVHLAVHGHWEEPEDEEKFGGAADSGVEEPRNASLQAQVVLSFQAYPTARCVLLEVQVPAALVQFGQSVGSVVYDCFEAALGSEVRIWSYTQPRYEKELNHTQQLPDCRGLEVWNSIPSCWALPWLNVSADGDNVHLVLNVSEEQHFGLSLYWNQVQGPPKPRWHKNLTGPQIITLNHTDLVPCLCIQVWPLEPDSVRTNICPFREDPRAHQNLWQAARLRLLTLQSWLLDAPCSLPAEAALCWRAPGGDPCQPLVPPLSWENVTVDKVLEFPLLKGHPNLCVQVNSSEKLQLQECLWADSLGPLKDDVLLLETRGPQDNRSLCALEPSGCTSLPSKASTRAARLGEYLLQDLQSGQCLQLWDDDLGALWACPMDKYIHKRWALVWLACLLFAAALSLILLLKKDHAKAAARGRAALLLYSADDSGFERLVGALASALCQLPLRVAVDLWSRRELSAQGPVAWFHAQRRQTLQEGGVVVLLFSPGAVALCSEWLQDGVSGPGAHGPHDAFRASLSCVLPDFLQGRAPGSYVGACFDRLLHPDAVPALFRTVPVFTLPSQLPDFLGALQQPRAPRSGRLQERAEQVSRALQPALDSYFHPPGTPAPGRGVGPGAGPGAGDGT
Described as above.
From the text: as §1

The target of another assay is T4, human IL-17F (human, UniProt Q96PD4 31-163).
T4 construct: also called hIL-17F; hIL17F
T4 sequence: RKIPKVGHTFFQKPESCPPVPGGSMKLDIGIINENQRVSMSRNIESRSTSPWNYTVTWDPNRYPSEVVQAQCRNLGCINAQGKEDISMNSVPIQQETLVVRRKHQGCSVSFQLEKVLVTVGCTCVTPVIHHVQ
Briefly: cell-based competition binding, FACS. The protocol:
(§2) The biotinylation of the ligand allows for FACS detection using a secondary Streptavidin conjugated fluorophore. A reduction in cell bound ligand over a titration of the soluble receptor is recorded as a reduction in the mean fluorescence of the cells. Biotinylated ligands are individually pre-mixed at 1 ug/ml with titrating amounts of soluble receptor in staining media (HBSS+1% BSA+0.1% NaAzide+10 mM HEPES) in 100 ul volumes and incubated at RT for 15 minutes. A BHK cell line stably transfected with full length IL17RCx4 is prepared for ligand staining by resuspension with Versene (Invitrogen cat. 15040-066), equilibrating to 2×10e5 cells/100 ul, pelleting, and resuspension in the ligand/soluble receptor pre-mix. Stained cells are incubated at 4° for 30 minutes, washed 1× in staining media, and stained with Streptavidin-PE (BD Pharmingen cat. 554061) at a 1:100 ratio. Cells are incubated at 4° in the dark for 30 minutes, washed 2× in staining media, and re-suspended in a 1:1 ratio of staining media and Cytofix (BD Bioscience 554655). The BD LSRII Flow Cytometer or similar instrument is used for data collection and analysis. FIG. 5 depicts a standard graph. The graph was generated using the Prizm software program. The Y values represent the MFI normalized to maximum and minimum (100% and 0%) based on ligand only and no ligand/no soluble receptor control wells, and thus the percent binding of the ligand to the cells. The software calculates the IC50 for each curve.

The target in the next assay is T5, human IL-17A (human, UniProt Q16552 24-155).
T5 construct: also called hIL-17A; hIL17A
T5 sequence: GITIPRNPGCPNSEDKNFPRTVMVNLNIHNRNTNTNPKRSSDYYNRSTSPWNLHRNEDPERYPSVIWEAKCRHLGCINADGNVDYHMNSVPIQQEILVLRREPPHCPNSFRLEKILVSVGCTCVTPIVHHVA
Kind of assay: cell-based competition binding, FACS. The protocol: as §2

B1: human IL-17C (ligand, UniProt Q9P0M4 19-197, looked up)
chain: HHDPSLRGHPHSHGTPHCYSAEELPLGQAPPHLLARGAKWGQALPVALVSSLEAASHRGRHERPSATTQCPVLRPEEVLEADTHQRSISPWRYRVDTDEDRYPQKLAFAECLCRGCIDARTGRETAALNSVRLLQSLLVLRRRPCSRDGSGLPTPGAFAFHTEFIHVPVGCTCVLPRSV
notes: also called hIL-17C
Take B1: the binding result in assay [1] is on record as “no binding (tested: 100 fold molar excess)”.

B2: human IL-17E (ligand, UniProt Q9H293 33-177, looked up)
chain: YSHWPSCCPSKGQDTSEELLRWSTVPVPPLEPARPNRHPESCRASEDGPLNSRAISPWRYELDRDLNRLPQDLYHARCLCPHCVSLQTGSHMDPRGNSELLYHNQTVFYRRPCHGEKGTHKGYCLERRLYRVSLACVCVRPRVMG
notes: also called hIL-17E
Consider B2, for which the binding result in assay [1] is given as “no binding (tested: 100 fold molar excess)”; in assay [2] it was “no binding”.

B3: murine IL-17F (ligand)
chain: RKNPKAGVPALQKAGNCPPLEDNTVRVDIRIFNQNQGISVPREFQNRSSSPWDYNITRDPHRFPSEIAEAQCRHSGCINAQGQEDSTMNSVAIQQEILVLRREPQGCSNSFRLEKMLLKVGCTCVKPIVHQAA
notes: also called mIL-17F; mIL17F
Turning to B3, the binding result in assay [3] was “no binding”; in assay [4], “binds”.

B4: Variant 1390 (Fc fusion)
chain: LERLVGPQDATHCSPGLSCRLWDSDILCLPGDIVPAPGPVLAPTHLQTELVLRCQKETDCDLCLRVAVHLAVHGHWEEPEDEEKFGGAADSGVEEPRNASLQAQVVLSFQAYPTARCVLLEVQVPAALVQFGQSVGSVVYDCFEAALGSEVRIWSYTQPRYEKELNHTQQLPALPWLNVSADGDNVHLVLNVSEEQHFGLSLYWNQVQGPPKPRWHKNLTGPQIITLNHTDLVPCLCIQVWPLEPDSVRTNICPFREDPRAHQNLWQAARLRLLTLQSWLLDAPCSLPAEAALCWRAPGGDPCQPLVPPLSWENVTVDKVLEFPLLKGHPNLCVQVNSSEKLQLQECLWADSLGPLKDDVLLLETRGPQDNRSLCALEPSGCTSLPSKASTRAARLGEYLLQDLQSGQCLQLWDDDLGALWACPMDKYIHKEPKSSDKTHTCPPCPAPEAEGAPSVFLFPPKPKDTLMISRTPEVTCVVVDVSHEDPEVKFNWYVDGVEVHNAKTKPREEQYNSTYRVVSVLTVLHQDWLNGKEYKCKVSNKALPSSIEKTISKAKGQPREPQVYTLPPSRDELTKNQVSLTCLVKGFYPSDIAVEWESNGQPENNYKTTPPVLDSDGSFFLYSKLTVDKSRWQQGNVFSCSVMHEALHNHYTQKSLSLSPGK
notes: The entry may include the signal peptide; also called IL17RC 1390
Consider B4, for which the 50% inhibitory concentration (IC50) is 9 µg/mL in the assay with human IL-17F and 12 µg/mL with human IL-17A.

B5: Variant 1459 (Fc fusion)
chain: B4 chain with L1A
notes: The entry may include the signal peptide; also called IL17RC 1459
Turning to B5, the 50% inhibitory concentration (IC50) with human IL-17F is 103 µg/mL; with human IL-17A, 126 µg/mL.

B6: human IL-17D (ligand, UniProt Q8TAD2 18-202, looked up)
chain: APRAGRRPARPRGCADRPEELLEQLYGRLAAGVLSAFHHTLQLGPREQARNASCPAGGRPADRRFRPPTNLRSVSPWAYRISYDPARYPRYLPEAYCLCRGCLTGLFGEEDVRFRSAPVYMPTVVLRRTPACAGGRSVYTEAYVTIPVGCTCVPEPEKDADSINSSIDKQGAKLLLGPNDAPAGP
notes: also called hIL-17D
With B6, the binding result in assay [1] is “no binding (tested: 100 fold molar excess)”; in assay [2], “no binding”.
